B1: Hairpin Ribozyme (parent)
chain: GUCCUCUUUCACGUGCGCGUGAAAGAGAGAAGUGAACCAGAGAAACACACGUUGUGGUAUAUUACCUGGUA
B2: Hammerhead Ribozyme (parent)
chain: ACCGGAUGUGCUUUCCGGUCUGAUGAGUCCGUGAGGACGAAACAG

Variants of: B1
Assay: self-cleavage, relative activity (ratio to wild type); higher = more cleavage; co-transcriptional

Q: Which self-cleavage does the source give for G1C C50A here?
A: The self-cleavage was 0.147.

Q: Which self-cleavage does the source give for G1C A44C here?
A: The self-cleavage was 0.125.

Q: With G1C U58G as the variant, how does the self-cleavage read?
A: Its self-cleavage is 0.284.

Q: Which self-cleavage does the source give for G1U A61C here?
A: Its self-cleavage is 0.0683.

Q: For G1U A61U, which self-cleavage is on record?
A: The self-cleavage was 0.116.

Q: Which self-cleavage does the source give for G1U A61G here?
A: The self-cleavage was 0.041.

Q: With G1A A35G as the variant, how does the self-cleavage read?
A: Its self-cleavage is 0.16.

Q: For G1A A35C, which self-cleavage is on record?
A: The self-cleavage was 0.109.

Q: For G1C A59U, which self-cleavage is on record?
A: The self-cleavage was 0.114.

Q: For G1C A59G, which self-cleavage is on record?
A: Its self-cleavage is 0.0434.

Q: For G1C U14A, which self-cleavage is on record?
A: Its self-cleavage is 0.046.

Q: Which self-cleavage does the source give for G1C U14C here?
A: The self-cleavage was 0.

Q: With G1C U53A as the variant, how does the self-cleavage read?
A: The self-cleavage was 0.2.

Q: For G1A U67C, which self-cleavage is on record?
A: The self-cleavage was 0.178.

Q: For G1A C10A, which self-cleavage is on record?
A: Its self-cleavage is 0.175.

Q: For G1A G32A, which self-cleavage is on record?
A: The self-cleavage was 0.196.

Q: For G1A G32U, which self-cleavage is on record?
A: The self-cleavage was 0.184.

Q: For G1A G68C, which self-cleavage is on record?
A: The self-cleavage was 0.181.

Q: With G1C C16G as the variant, how does the self-cleavage read?
A: Its self-cleavage is 0.238.

Q: For G1A A36U, which self-cleavage is on record?
A: The self-cleavage was 0.0776.

Q: For G1A A49G, which self-cleavage is on record?
A: Its self-cleavage is 0.233.

Q: For G1C G29C, which self-cleavage is on record?
A: The self-cleavage was 0.203.

Q: With G1A A47U as the variant, how does the self-cleavage read?
A: The self-cleavage was 0.257.

Q: Which self-cleavage does the source give for G1C U20C here?
A: Its self-cleavage is 0.241.

Q: For G1A C12G, which self-cleavage is on record?
A: Its self-cleavage is 0.263.

Q: For G1A C12A, which self-cleavage is on record?
A: The self-cleavage was 0.131.

Q: For G1C A22G, which self-cleavage is on record?
A: The self-cleavage was 0.255.

Q: For G1C A24G, which self-cleavage is on record?
A: Its self-cleavage is 0.129.

Q: With G1A C46G as the variant, how does the self-cleavage read?
A: The self-cleavage was 0.104.

Q: Which self-cleavage does the source give for G1A G51A here?
A: The self-cleavage was 0.21.

Q: For G1C U2A, which self-cleavage is on record?
A: The self-cleavage was 0.251.

Q: With G1C U2G as the variant, how does the self-cleavage read?
A: The self-cleavage was 0.306.

Q: Which self-cleavage does the source give for G1A C66G here?
A: The self-cleavage was 0.225.

Q: With G1C G17C as the variant, how does the self-cleavage read?
A: The self-cleavage was 0.295.

Q: For G1C G17A, which self-cleavage is on record?
A: Its self-cleavage is 0.232.

Q: For G1A C6A, which self-cleavage is on record?
A: Its self-cleavage is 0.197.

Q: With G1C U67C as the variant, how does the self-cleavage read?
A: Its self-cleavage is 0.119.

Q: For G1A A23U, which self-cleavage is on record?
A: The self-cleavage was 0.163.

Q: With G1A A59U as the variant, how does the self-cleavage read?
A: The self-cleavage was 0.286.

Q: For G1C U7G, which self-cleavage is on record?
A: The self-cleavage was 0.258.

Q: With G1C A36C as the variant, how does the self-cleavage read?
A: The self-cleavage was 0.107.

Q: With G1C A36G as the variant, how does the self-cleavage read?
A: The self-cleavage was 0.105.

Q: With G1C G56C as the variant, how does the self-cleavage read?
A: Its self-cleavage is 0.202.

Q: With G1C G56A as the variant, how does the self-cleavage read?
A: The self-cleavage was 0.0459.

Q: For G1A G57U, which self-cleavage is on record?
A: The self-cleavage was 0.179.

Q: With G1A G57A as the variant, how does the self-cleavage read?
A: The self-cleavage was 0.177.

Q: For G1U A41G, which self-cleavage is on record?
A: The self-cleavage was 0.0954.

Q: Which self-cleavage does the source give for G1U A24U here?
A: Its self-cleavage is 0.117.

Q: Which self-cleavage does the source give for G1C G21A here?
A: Its self-cleavage is 0.109.

Q: With G1C G21U as the variant, how does the self-cleavage read?
A: Its self-cleavage is 0.274.

Q: With G1A G15C as the variant, how does the self-cleavage read?
A: Its self-cleavage is 0.287.

Q: With G1C A30G as the variant, how does the self-cleavage read?
A: Its self-cleavage is 0.322.

Q: With G1A C50A as the variant, how does the self-cleavage read?
A: The self-cleavage was 0.127.

Q: For G1A C50G, which self-cleavage is on record?
A: The self-cleavage was 0.277.

Q: For G1C G32A, which self-cleavage is on record?
A: The self-cleavage was 0.198.

Q: For G1C U52C, which self-cleavage is on record?
A: Its self-cleavage is 0.132.

Q: With G1C A47U as the variant, how does the self-cleavage read?
A: The self-cleavage was 0.152.

Q: With G1C A47G as the variant, how does the self-cleavage read?
A: Its self-cleavage is 0.13.

Q: With G1A U52G as the variant, how does the self-cleavage read?
A: Its self-cleavage is 0.0884.

Q: For G1C A23U, which self-cleavage is on record?
A: Its self-cleavage is 0.197.

Q: For G1C A23C, which self-cleavage is on record?
A: The self-cleavage was 0.103.

Q: For G1C A28G, which self-cleavage is on record?
A: The self-cleavage was 0.167.

Variants of: B2
Assay: as above

Q: Which self-cleavage does the source give for U19A G27A here?
A: The self-cleavage was 0.34.

Q: With U13A U24C as the variant, how does the self-cleavage read?
A: The self-cleavage was 1.07.

Q: For G4C G10A, which self-cleavage is on record?
A: Its self-cleavage is 0.662.

Q: Which self-cleavage does the source give for G18A A34G here?
A: The self-cleavage was 0.562.

Q: With C20G G25A as the variant, how does the self-cleavage read?
A: The self-cleavage was 0.314.

Q: Which self-cleavage does the source give for G4A C30A here?
A: Its self-cleavage is 0.379.

Q: With A1C A37U as the variant, how does the self-cleavage read?
A: The self-cleavage was 0.34.

Q: For A34G C43G, which self-cleavage is on record?
A: The self-cleavage was 0.471.

Q: Which self-cleavage does the source give for U32A A37U here?
A: The self-cleavage was 0.754.

Q: With G22C C38G as the variant, how does the self-cleavage read?
A: Its self-cleavage is 0.386.

Q: With U21C A41U as the variant, how does the self-cleavage read?
A: Its self-cleavage is 0.469.

Q: Which self-cleavage does the source give for C15A C20U here?
A: Its self-cleavage is 0.438.

Q: With A1C G5U as the variant, how does the self-cleavage read?
A: Its self-cleavage is 0.444.

Q: Which self-cleavage does the source give for C38G A44G here?
A: Its self-cleavage is 0.833.

Q: For C11G C43A, which self-cleavage is on record?
A: The self-cleavage was 0.311.

Q: Which self-cleavage does the source give for U19A A40C here?
A: Its self-cleavage is 0.339.

Q: With A6C A37G as the variant, how does the self-cleavage read?
A: The self-cleavage was 0.333.

Q: Which self-cleavage does the source give for G22C G33C here?
A: Its self-cleavage is 0.381.

Q: Which self-cleavage does the source give for G4U U9G here?
A: The self-cleavage was 0.368.

Q: For U14G A34G, which self-cleavage is on record?
A: The self-cleavage was 0.652.

Q: Which self-cleavage does the source give for U14A G17C here?
A: Its self-cleavage is 0.375.

Q: For G5A G27A, which self-cleavage is on record?
A: The self-cleavage was 0.776.

Reference: the RNAGym collection of RNA variant scans (doi:10.7554/elife.80360)
